Test results taken from article PMC6513997, “PFA ependymoma-associated protein EZHIP inhibits PRC2 activity through a H3 K27M-like mechanism” (Nature Communications, 2019).
Primed or numbered codes have the meaning given here. Where no end group is shown, it is not given here. Biotin′ = not defined here

Tests used:
[1] = molecular target: recombinant PRC2 purified from SF9 cells (EZH2, SUZ12, EED, RBBP4) (human, UniProt Q15910 1-746; Q15022 1-739; O75530 1-441; Q09028 1-425); test: cell-based or functional assay
recombinant PRC2 purified from SF9 cells (EZH2, SUZ12, EED, RBBP4), sequence (Q15910 whole entry, chain 1 of 4): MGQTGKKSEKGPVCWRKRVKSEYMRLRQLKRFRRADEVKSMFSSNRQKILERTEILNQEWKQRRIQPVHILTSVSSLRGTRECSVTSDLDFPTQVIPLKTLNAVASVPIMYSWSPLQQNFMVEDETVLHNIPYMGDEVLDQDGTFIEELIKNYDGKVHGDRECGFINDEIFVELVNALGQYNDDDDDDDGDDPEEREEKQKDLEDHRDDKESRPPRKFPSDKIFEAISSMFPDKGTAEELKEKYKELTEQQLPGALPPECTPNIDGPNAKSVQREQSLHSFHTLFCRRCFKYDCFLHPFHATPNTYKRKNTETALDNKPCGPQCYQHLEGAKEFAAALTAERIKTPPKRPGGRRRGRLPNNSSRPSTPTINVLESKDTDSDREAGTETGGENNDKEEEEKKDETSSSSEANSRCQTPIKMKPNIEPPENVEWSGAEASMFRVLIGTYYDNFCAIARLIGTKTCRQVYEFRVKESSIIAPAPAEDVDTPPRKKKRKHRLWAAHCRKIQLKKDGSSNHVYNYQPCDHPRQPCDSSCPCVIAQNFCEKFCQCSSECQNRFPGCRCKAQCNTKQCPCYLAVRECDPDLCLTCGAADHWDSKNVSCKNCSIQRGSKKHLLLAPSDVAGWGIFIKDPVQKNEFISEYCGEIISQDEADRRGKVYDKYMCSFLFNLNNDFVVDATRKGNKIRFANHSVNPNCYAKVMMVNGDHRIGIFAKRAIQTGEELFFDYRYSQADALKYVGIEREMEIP
recombinant PRC2 purified from SF9 cells (EZH2, SUZ12, EED, RBBP4), sequence (Q15022 whole entry, chain 2 of 4): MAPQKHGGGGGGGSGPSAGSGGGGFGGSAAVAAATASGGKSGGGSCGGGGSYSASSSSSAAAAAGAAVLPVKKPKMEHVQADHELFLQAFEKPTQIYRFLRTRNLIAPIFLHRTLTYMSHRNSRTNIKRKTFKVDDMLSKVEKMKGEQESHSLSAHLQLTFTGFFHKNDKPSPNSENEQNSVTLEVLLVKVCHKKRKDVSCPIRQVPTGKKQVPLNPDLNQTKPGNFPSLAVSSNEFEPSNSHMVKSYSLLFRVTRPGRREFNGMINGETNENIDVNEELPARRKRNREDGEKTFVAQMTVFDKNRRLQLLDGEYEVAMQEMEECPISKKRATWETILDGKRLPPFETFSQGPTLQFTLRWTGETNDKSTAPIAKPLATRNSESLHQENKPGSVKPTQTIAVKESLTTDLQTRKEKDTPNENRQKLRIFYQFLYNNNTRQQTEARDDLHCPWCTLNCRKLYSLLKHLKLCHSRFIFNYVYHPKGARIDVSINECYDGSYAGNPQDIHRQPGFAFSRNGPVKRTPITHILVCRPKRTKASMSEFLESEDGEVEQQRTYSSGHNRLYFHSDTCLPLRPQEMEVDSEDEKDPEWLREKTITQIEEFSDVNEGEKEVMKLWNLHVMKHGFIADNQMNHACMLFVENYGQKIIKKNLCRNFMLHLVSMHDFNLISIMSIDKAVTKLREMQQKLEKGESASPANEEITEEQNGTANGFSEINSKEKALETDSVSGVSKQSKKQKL
recombinant PRC2 purified from SF9 cells (EZH2, SUZ12, EED, RBBP4), sequence (O75530 whole entry, chain 3 of 4): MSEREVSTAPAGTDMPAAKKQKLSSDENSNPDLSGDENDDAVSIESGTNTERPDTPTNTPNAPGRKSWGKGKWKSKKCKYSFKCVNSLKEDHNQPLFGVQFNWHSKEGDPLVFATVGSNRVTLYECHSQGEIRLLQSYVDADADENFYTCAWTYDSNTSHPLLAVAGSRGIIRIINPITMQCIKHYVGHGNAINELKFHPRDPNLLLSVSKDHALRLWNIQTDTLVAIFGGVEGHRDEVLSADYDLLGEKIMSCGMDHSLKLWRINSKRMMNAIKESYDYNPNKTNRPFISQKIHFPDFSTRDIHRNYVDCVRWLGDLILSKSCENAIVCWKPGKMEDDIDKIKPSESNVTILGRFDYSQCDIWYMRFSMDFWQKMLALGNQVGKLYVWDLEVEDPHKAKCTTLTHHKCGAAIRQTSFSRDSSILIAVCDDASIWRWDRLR
recombinant PRC2 purified from SF9 cells (EZH2, SUZ12, EED, RBBP4), sequence (Q09028 whole entry, chain 4 of 4): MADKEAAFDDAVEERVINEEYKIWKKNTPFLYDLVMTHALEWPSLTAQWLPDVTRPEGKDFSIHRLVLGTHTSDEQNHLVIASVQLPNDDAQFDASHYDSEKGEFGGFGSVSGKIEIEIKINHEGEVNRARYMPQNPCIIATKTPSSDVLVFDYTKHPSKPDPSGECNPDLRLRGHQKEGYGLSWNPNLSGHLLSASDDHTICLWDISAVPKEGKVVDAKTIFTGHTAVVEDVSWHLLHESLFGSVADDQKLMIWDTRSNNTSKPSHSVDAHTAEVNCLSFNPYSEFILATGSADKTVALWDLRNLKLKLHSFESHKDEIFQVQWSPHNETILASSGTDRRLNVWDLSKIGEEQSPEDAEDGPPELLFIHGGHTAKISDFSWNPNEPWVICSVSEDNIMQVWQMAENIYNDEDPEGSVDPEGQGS

[2] = molecular target: native PRC2 purified from HeLa cells expressing FLAG-tagged EZH2 ( | human (endogenous in HeLa), UniProt Q15910 1-746); test: steady-state enzyme kinetics (inhibition of methyltransferase activity); increasing oligonucleosome substrate with PRC2, SAM and varying EZHIP; Michaelis-Menten and Lineweaver-Burk curves fitted with competitive mode of inhibition; settings: both partners purified
native PRC2 purified from HeLa cells expressing FLAG-tagged EZH2, sequence (Q15910 whole entry, chain 1 of 4): as the sequence (Q15910 whole entry, chain 1 of 4) above
native PRC2 purified from HeLa cells expressing FLAG-tagged EZH2, sequence (Q15022 whole entry, chain 2 of 4, further chain): as the sequence (Q15022 whole entry, chain 2 of 4) above
native PRC2 purified from HeLa cells expressing FLAG-tagged EZH2, sequence (O75530 2-441, chain 3 of 4, further chain): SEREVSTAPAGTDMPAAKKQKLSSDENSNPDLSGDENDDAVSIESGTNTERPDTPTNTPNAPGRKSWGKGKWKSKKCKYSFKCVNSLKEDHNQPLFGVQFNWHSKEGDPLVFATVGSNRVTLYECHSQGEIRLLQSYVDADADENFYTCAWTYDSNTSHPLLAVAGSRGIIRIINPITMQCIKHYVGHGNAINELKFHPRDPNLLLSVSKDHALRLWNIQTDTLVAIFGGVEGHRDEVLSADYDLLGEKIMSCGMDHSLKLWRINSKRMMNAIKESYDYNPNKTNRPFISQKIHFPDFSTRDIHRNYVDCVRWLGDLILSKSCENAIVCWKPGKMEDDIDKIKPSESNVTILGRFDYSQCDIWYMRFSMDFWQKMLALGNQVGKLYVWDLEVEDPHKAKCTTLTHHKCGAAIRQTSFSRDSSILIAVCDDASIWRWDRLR
native PRC2 purified from HeLa cells expressing FLAG-tagged EZH2, sequence (Q09028 2-425, chain 4 of 4, further chain): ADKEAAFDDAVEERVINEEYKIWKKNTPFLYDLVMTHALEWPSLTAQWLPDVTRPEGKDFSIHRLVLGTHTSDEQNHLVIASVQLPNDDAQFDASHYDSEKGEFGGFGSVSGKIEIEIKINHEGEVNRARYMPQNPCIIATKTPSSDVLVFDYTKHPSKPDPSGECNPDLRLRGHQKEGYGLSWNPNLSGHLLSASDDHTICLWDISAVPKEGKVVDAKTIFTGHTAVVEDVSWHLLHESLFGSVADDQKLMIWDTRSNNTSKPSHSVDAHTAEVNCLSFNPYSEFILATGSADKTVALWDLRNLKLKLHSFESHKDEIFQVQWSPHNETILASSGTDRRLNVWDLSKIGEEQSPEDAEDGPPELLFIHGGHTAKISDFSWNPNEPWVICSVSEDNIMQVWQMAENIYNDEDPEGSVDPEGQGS

B1: biotinylated EZHIP (403-422) peptide, K27M-like peptide (peptide)
peptide: AVRMRASSPSPPGRFFLPIPK-{Biotin′}
modifications: not fully specified (residue 21); printed as AVRMRASSPSPPGRFFLPIPK-biotin
IC50 of PRC2 methyltransferase activity on H3 18-37 peptide, EZHIP KLP titrated, without H3K27me3 stimulatory peptide [1]: 35 µM
IC50 of rPRC2-Ezh2 methyltransferase activity on H3 (18-37) peptide substrate, KLP (403-423) peptide titrated, with H3K27me3 stimulatory peptide [1]: 4.1 µM

B2: biotinylated H3.3 K27M (18-37) peptide (peptide)
peptide: KQLATKAARMSAPSTGGVKKYK
modifications: not fully specified; biotin on the added C-terminal K
IC50 of rPRC2-Ezh2 methyltransferase activity on H3 (18-37) peptide substrate, H3 K27M (18-37) peptide titrated, with H3K27me3 stimulatory peptide [1]: 27.9 µM

B3: recombinant EZHIP purified from SF9 cells (natural protein)
chain: MATQSDMEKEQKHQQDEGQGGLNNETALASGDACGTGNQDPAASVTTVSSQASPSGGAALSSSTAGSSAAAATSAAIFITDEASGLPIIAAVLTERHSDRQDCRSPHEVFGCVVPEGGSQAAVGPQKATGHADEHLAQTKSPGNSRRRKQPCRNQAAPAQKPPGRRLFPEPLPPSSPGFRPSSYPCSGASTSSQATQPGPALLSHASEARPATRSRITLVASALRRRASGPGPVIRGCTAQPGPAFPHRATHLDPARLSPESAPGPARRGRASVPGPARRGCDSAPGPARRGRDSAPVSAPRGRDSAPGSARRGRDSAPGPALRVRTARSDAGHRSTSTTPGTGLRSRSTQQRSALLSRRSLSGSADENPSCGTGSERLAFQSRSGSPDPEVPSRASPPVWHAVRMRASSPSPPGRFFLPIPQQWDESSSSSYASNSSSPSRSPGLSPSSPSPEFLGLRSISTPSPESLRYALMPEFYALSPVPPEEQAEIESTAHPATPPEP
Ki [2]: 0.00222 µM
